Experimental data reported in US20150307867.

Experiments:
TAL1 (Homo sapiens) = TAL1 (Homo sapiens) (UniProt P17542); details: ChIP-pyrosequencing, heterozygous primary human erythroblasts; input alleles balanced; about 60:40 G:T
GATA1 (Homo sapiens) = GATA1 (Homo sapiens) (UniProt P15976); details: ChIP-pyrosequencing, heterozygous primary human erythroblasts; input alleles balanced; about 60:40 G:T
Chain of GATA1 (Homo sapiens) (P15976 whole entry): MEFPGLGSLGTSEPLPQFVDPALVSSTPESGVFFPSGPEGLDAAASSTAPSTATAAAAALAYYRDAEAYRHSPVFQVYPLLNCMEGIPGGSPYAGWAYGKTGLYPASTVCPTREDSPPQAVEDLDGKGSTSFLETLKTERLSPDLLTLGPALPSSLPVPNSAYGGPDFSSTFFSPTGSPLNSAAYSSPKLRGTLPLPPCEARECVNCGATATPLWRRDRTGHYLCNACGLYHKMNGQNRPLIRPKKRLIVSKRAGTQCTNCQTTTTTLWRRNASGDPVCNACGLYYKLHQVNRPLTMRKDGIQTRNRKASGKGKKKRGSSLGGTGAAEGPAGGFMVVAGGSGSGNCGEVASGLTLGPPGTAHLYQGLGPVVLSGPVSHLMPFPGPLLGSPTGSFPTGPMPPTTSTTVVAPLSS

Chain of TAL1 (Homo sapiens) (P17542 whole entry): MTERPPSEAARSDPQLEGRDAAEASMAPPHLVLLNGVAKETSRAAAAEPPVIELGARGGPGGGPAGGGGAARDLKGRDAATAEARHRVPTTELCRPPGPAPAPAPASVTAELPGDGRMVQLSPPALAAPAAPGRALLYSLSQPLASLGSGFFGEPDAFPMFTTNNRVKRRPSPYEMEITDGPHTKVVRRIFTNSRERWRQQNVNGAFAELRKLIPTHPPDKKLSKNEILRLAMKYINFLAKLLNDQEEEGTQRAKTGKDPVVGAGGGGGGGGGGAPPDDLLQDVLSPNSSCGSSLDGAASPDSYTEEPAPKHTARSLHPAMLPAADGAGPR

Row | Substance | binding signal (% of alleles in ChIP) (TAL1 (Homo sapiens)) | binding signal (% of alleles in ChIP) (GATA1 (Homo sapiens))
1 | BCL11A DHS +62 rs1427407 T-allele | 40 | 40
2 | CTGNNNNNNNNNGATA (double strand) [BCL11A DHS +62 rs1427407 G-allele (half-E-box/GATA motif)] | 60 | 60
